Read-outs that look alike come from different tables or passages of the source. Positions of bridges follow the written chain, without caps; N, C: chain ends. Residues, ends and D or L forms follow the SMILES beside them. *: point of attachment. DOTA = O=C(O)CN1CCN(CC(=O)O)CCN(CC(=O)*)CCN(CC(=O)O)CC1
How the values were obtained:
[1] = tested on: BGC-823 tumors; assay: Biodistribution in tumor-bearing nude mice; type: in vivo, nude BALB/c mice
Protocol: All of the experiments were performed according to a protocol approved by the Fourth Military Medical University (FMMU) Animal Care and Use Committee. A total of 0.2 ml of cell suspension (BGC823, 2 × 10^6 cells) was implanted by subcutaneous injection into the right upper limb of athymic female nude BALB/c mice (age, 4–6 weeks; weight, 15–20 g). When the diameter of the tumor reached approximately 8 mm, it could be used for imaging. […] For the biodistribution of the probes, 3.7 × 10^6 Bq of probe was injected intravenously. […] The percentage of injected dose per gram (%ID/g) was calculated. […] The %ID/g was calculated as described previously.

[2] = 37°C, determined at 0, 30, 60, 90 min, value holds for 90 min, radioactive TLC
Protocol: We used four kinds of solutions to observe the stability of the probes, namely, raw solution, normal saline, fresh mouse serum, and human serum. The specific methods were as follows: the probe and each solution were mixed according to a volume ratio of 1:100, and the original solution was kept as a control. The radiochemical purity of the solution was determined at 0, 30, 60, and 90 min. A curve was drawn to observe the stability of the probe in vitro and to speculate whether the probe would be removed from the standard in vivo.
Four kinds of solutions were used to observe the stability of the probe, namely, raw solution, normal saline, fresh mouse serum, and human serum. The probe was mixed with each solution at a volume ratio of 1:100, and the original solution was retained as a control. The radiochemical purity of the solution was determined after incubation for 0, 30, 60, and 90 min at 37°C.

## NCCCC[C@H](NC(=O)[C@H](CCC(=O)O)NC(=O)[C@H](CCCCN)NC(=O)[C@@H]1CSSC[C@H](NC(=O)CN2CCN(CC(=O)O)CCN(CC(=O)O)CCN(CC(=O)O)CC2)C(=O)NCC(=O)N[C@@H](CC(N)=O)C(=O)N[C@@H](CO)C(=O)N[C@@H](CC(N)=O)C(=O)N2CCC[C@H]2C(=O)N[C@@H](CCCCN)C(=O)N[C@@H](CO)C(=O)N1)C(=O)N[C@H]1CSSC[C@@H](C(=O)O)NC(=O)[C@H](CO)NC(=O)[C@H](CCCCN)NC(=O)[C@@H]2CCCN2C(=O)[C@H](CC(N)=O)NC(=O)[C@H](CO)NC(=O)[C@H](CC(N)=O)NC(=O)CNC1=O [^68Ga-DOTA-KEK-(GX1)2, metal not drawn] ({DOTA}-CGNSNPKSCKEKCGNSNPKSC-OH; disulfide 1-9, 13-21)
[1]; 3.7 × 10^6 Bq i.v., 30, 60, 90 min, while kidney and liver radioactivity reduced rapidly
  radiation of the tumor over time: decreased relatively slowly
[1]; 3.7 × 10^6 Bq i.v., 60 min, except for the liver and kidney
  %ID/g of the tumor compared with organs: higher than that of other normal organs
[1]; 3.7 × 10^6 Bq i.v., 60 min postinjection
  uptake by tumors compared between probes (%ID/g): much higher than that of ^68Ga-DOTA-GX1
[1]; tumor/nontumor ratios, 30, 60, 90 min after injection
  T/NT ratios: increased over time
[2]; fresh mouse serum, probe:solution 1:100 v/v
  labeling rate (radiochemical purity) remaining: above 95%
[2]; human serum, probe:solution 1:100 v/v
  labeling rate (radiochemical purity) remaining: above 95%
[2]; normal saline, probe:solution 1:100 v/v
  labeling rate (radiochemical purity) remaining: above 95%
[2]; raw (original) solution kept as control
  labeling rate (radiochemical purity) remaining: above 95%

From PMC8514943, “^68Ga-Labeled GX1 Dimer: A Novel Probe for PET/Cerenkov Imaging Targeting Gastric Cancer” (Frontiers in Oncology, 2021)
